Tests used:
[1] = molecular target: human PI16 (Peptidase inhibitor 16) expressed on the cell surface (human) (UniProt Q6UXB8); assay: flow cytometry, ILT3Fc cross-linked with anti-human Fc antibody on PI16-transfected 3A9 cells
[2] = molecular target: human PI16 (Peptidase inhibitor 16) expressed on the cell surface (human) (UniProt Q6UXB8); assay: flow cytometry, ILT3Fc on PI16-transfected 3A9 cells
[3] = molecular target: ILT3-CD3z fusion protein on reporter cells (human); assay: cell-based or functional assay
Chain of ILT3-CD3z fusion protein on reporter cells (human) (Q8NHJ6 22-259): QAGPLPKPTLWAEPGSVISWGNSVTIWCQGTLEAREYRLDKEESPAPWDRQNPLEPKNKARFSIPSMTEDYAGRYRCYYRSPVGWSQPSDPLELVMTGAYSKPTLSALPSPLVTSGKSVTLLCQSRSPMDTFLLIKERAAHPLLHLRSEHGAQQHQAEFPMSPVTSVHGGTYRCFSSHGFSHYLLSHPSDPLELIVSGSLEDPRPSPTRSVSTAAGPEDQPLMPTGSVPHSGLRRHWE

percent of cells stained [1] | percent of cells stained [2] | luciferase activity of ILT3 reporter cells [3] | Substance
23% | 8.3% | – | ILT3Fc (Fc fusion)
– | – | 2 log | human PI16 (Peptidase inhibitor 16) expressed on the cell surface (from UniProt Q6UXB8 28-463) (ligand)

Reference: patent publication US20190241655A1
